Residue numbers refer to the chain shown, from its start. Names and notes keep the numbering of the source.
T1: factor XIIIa (Homo sapiens, UniProt P00488)
T1 sequence (P00488 39-732 limits assumed): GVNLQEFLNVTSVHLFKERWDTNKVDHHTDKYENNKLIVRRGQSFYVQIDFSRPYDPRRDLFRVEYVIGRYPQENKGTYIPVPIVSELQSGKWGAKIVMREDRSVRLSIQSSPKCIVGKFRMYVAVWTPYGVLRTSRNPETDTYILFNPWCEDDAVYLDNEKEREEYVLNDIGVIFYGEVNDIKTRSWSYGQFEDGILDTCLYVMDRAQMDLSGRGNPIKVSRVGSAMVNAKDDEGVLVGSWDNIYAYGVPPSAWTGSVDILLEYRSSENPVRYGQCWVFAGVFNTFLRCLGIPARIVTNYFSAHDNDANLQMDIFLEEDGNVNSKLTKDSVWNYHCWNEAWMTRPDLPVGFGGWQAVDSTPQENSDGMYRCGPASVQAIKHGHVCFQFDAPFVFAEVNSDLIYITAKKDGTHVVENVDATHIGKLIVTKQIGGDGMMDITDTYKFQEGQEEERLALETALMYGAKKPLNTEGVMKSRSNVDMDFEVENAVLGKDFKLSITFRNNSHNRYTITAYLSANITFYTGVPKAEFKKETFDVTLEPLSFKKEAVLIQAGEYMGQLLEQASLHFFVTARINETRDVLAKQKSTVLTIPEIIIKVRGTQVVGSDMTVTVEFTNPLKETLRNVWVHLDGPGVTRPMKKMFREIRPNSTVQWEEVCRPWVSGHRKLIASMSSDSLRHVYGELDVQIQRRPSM

B1: H10A: modified tridegin, XnY mutation of SEQ ID No. 1, expressed in Escherichia coli (protein)
chain: MKLLPCKEWAQGIPNPRCWCGADLECAQDQYCAFIPQCRPRSELIKPMDDIYQRPVEFPNLPLKPREE
B2: D50A, P55L: spontaneously arising double mutant of tridegin SEQ ID No. 1, expressed in Escherichia coli (protein)
chain: B1 chain with A10H, D50A, P55L
B3: I45A: modified tridegin, XnY mutation of SEQ ID No. 1, expressed in Escherichia coli (protein)
chain: B1 chain with A10H, I45A
B4: K02A: modified tridegin, XnY mutation of SEQ ID No. 1, expressed in Escherichia coli (protein)
chain: B1 chain with K2A, A10H
B5: C26A; +C38A: tridegin modified by replacement of two cysteine residues, expressed in Escherichia coli (protein)
chain: B1 chain with A10H, C26A, C38A
B6: D50A: modified tridegin, XnY mutation of SEQ ID No. 1, expressed in Escherichia coli (protein)
chain: B1 chain with A10H, D50A
B7: C26A: tridegin modified by replacement of a cysteine residue, expressed in Escherichia coli (protein)
chain: B1 chain with A10H, C26A
B8: F58A: modified tridegin, XnY mutation of SEQ ID No. 1, expressed in Escherichia coli (protein)
chain: B1 chain with A10H, F58A
B9: C20A: tridegin modified by replacement of a cysteine residue, expressed in Escherichia coli (protein)
chain: B1 chain with A10H, C20A
B10: C32A: tridegin modified by replacement of a cysteine residue, expressed in Escherichia coli (protein)
chain: B1 chain with A10H, C32A
B11: C18A: tridegin modified by replacement of a cysteine residue, expressed in Escherichia coli (protein)
chain: B1 chain with A10H, C18A
B12: C06A: tridegin modified by replacement of a cysteine residue, expressed in Escherichia coli (protein)
chain: B1 chain with C6A, A10H
B13: L24A: modified tridegin, XnY mutation of SEQ ID No. 1, expressed in Escherichia coli (protein)
chain: B1 chain with A10H, L24A
B14: G12A: modified tridegin, XnY mutation of SEQ ID No. 1, expressed in Escherichia coli (protein)
chain: B1 chain with A10H, G12A
B15: M48A: modified tridegin, XnY mutation of SEQ ID No. 1, expressed in Escherichia coli (protein)
chain: B1 chain with A10H, M48A
B16: Y31A: modified tridegin, XnY mutation of SEQ ID No. 1, expressed in Escherichia coli (protein)
chain: B1 chain with A10H, Y31A
B17: R39A: modified tridegin, XnY mutation of SEQ ID No. 1, expressed in Escherichia coli (protein)
chain: B1 chain with A10H, R39A
B18: P65A: modified tridegin, XnY mutation of SEQ ID No. 1, expressed in Escherichia coli (protein)
chain: B1 chain with A10H, P65A
B19: F34A: modified tridegin, XnY mutation of SEQ ID No. 1, expressed in Escherichia coli (protein)
chain: B1 chain with A10H, F34A
B20: K07A: modified tridegin, XnY mutation of SEQ ID No. 1, expressed in Escherichia coli (protein)
chain: B1 chain with K7A, A10H
B21: N60A: modified tridegin, XnY mutation of SEQ ID No. 1, expressed in Escherichia coli (protein)
chain: B1 chain with A10H, N60A
B22: recombinant tridegin polypeptide expressed in the yeast Pichia pastoris: tridegin polypeptide encoded by SEQ ID No. 90, secreted from Pichia pastoris; main product lacks the 11 C-terminal residues (protein)
chain: MRFPSIFTAVLFAASSALAAPVNTTTEDETAQIPAEAVIGYSDLEGDFDVAVLPFSNSTNNGLLFINTTIASIAAKEEGVSLEKRKLLPCKEWHQGIPNPRCWCGADLECAQDQYCAFIPQCRPRSELIKPMDDIYQRPVEFPNLPLKPREESLEHHHHHH
modifications: main product lacks 11 C-terminal residues
notes: main product lacks the 11 C-terminal residues

Target: T1, factor XIIIa
Assay: biochemical
Type: biochemical
Settings: for relative inhibitory effect (% of recombinant tridegin) at 7.27 µM: Table 3, final peptide concentration 7.27 μM, recombinant tridegin polypeptide at 7.27 μM normalized to 100%; for Relative inhibitory effect (%): final variant concentration 5.45 μM
Experimental: The assay is based on factor XIII being activated to form factor XIIIa by thrombin which is present in the reagents. Factor XIIIa links a specific peptide substrate to glycine ethyl ester with ammonium ions being released. The latter are determined in an enzyme reaction which proceeds in parallel. The extinction at 340 nm was used to measure the decrease in NADH. For the measurement, peptides were present in 50% acetonitrile in a stock concentration of 5 mM. The NADH and detection reagents which were supplied by the manufacturer were dissolved in 3 ml of water, with the activator reagent subsequently being dissolved in 3 ml of NADH reagent. For use, the activator and detection reagents were mixed in a ratio of 1:1. In order to carry out the measurement in microtiter plate format, 100 μl of sample (inhibitor or control buffer), 25 μl of factor XIII (10 U/ml) and 150 μl of working reagent were mixed. The measurement was carried out continuously for 20 min at 340 nm, and at 37° C., in a microtiter plate photometer. For the evaluation, the differences in the values measured after 16 and 20 min were compared.
The relative inhibitory effect (%) was determined at a final variant concentration of 5.45 μM. The inhibitory effect of the recombinant tridegin polypeptide was normalized to 100% (at 5.45 μM).
The above-described Berichrom® assay was used to determine the relative inhibitory effect (%) at a final concentration of the peptides of 7.27 μM. The inhibitory effect of the recombinant tridegin polypeptide, at a final concentration of 7.27 μM, was normalized to 100%.
The relative inhibitory effect (%) was determined at a final variant concentration of 5.45 μM. The inhibitory effect of the recombinant wild-type tridegin poly-peptide (at 5.45 μM) was normalized to 100%. The oligonucleotides which were used to produce the abovementioned variants are also specified in the table.

[1] = Table 2, recombinant tridegin polypeptide normalized to 100%
[2] = Table 4, Cys variants, wild-type tridegin polypeptide normalized to 100%

| Molecule | Relative inhibitory effect (%) [1] | also measured |
| --- | --- | --- |
| Ac-DDIYQRPVEFPNLPLKPREE-NH2 [SEQ ID No. 26] | – | relative inhibitory effect (% of recombinant tridegin) at 7.27 µM: 35.6% |
| Ac-IKPMDDIYQRPVEFPNLPLK-NH2 [SEQ ID No. 24] | – | relative inhibitory effect (% of recombinant tridegin) at 7.27 µM: 43.5% |
| Ac-PMDDIYQRPVEFPNLPLKPR-NH2 [SEQ ID No. 25] | – | relative inhibitory effect (% of recombinant tridegin) at 7.27 µM: 42.1% |
| B1 | 87% | – |
| B2 | 84% | – |
| B3 | 115% | – |
| B4 | 113% | – |
| B5 | – | Relative inhibitory effect (%) [2]: 80% |
| B6 | 53% | – |
| B7 | – | Relative inhibitory effect (%) [2]: 82% |
| B8 | 60% | – |
| B9 | – | Relative inhibitory effect (%) [2]: 63% |
| B10 | – | Relative inhibitory effect (%) [2]: 86% |
| B11 | – | Relative inhibitory effect (%) [2]: 93% |
| B12 | – | Relative inhibitory effect (%) [2]: 72% |
| B13 | 92% | – |
| B14 | 97% | – |
| B15 | 91% | – |
| B16 | 69% | – |
| B17 | 49% | – |
| B18 | 51% | – |
| B19 | 96% | – |
| B20 | 90% | – |
| B21 | 68% | – |
| B22 | – | inhibitory activity compared with wild-type tridegin polypeptide expressed in Escherichia coli: even more effective |

— US20090226415A1, “MODIFIED TRIDEGINS, PRODUCTION AND USE THEREOF AS TRANSGLUTAMINASE INHIBITORS” (priority 2001, published 2009)
